# Measurements as given in the nanobody polyreactivity screen of Harvey et al. (2022).
# Assay: yeast display, Sf9 membrane polyspecificity reagent, FACS + sequencing; frameworks hold sequencing errors
# In short: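 Synthetic nanobody libraries on Saccharomyces cerevisiae BJ5465 were galactose-induced for 36–48 hours, stained 1 hour at 4 °C with 10% biotinylated, detergent-solubilized Sf9 membrane reagent and enriched on streptavidin microbeads. FACS then separated cells into low and high (top ~1%) gates by anti-HA (expression) and streptavidin (reagent binding) fluorescence. Genes were colony-PCR amplified, MiSeq 2 × 250 sequenced and CDR-length filtered. A clone's polyreactivity label is that of its gate of origin.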
row,Sequence,polyreactivity (PSR sort gate)
1,QVQLVESGGGLVQAGGSLRLSCAASGSTFFIYAMGWYRQAPGKERELVAAISGSGGTTYYADSVKGRFTISRDNAKNTVYLQMNSLKPEDTAVYYCAARTFSAFWRGGYDYWGQGTQVTVSS,low polyreactivity
2,QVQLVESGGGLVQAGGSLRLSCAASGSTFFKNAMGWYRQAPGKESELVAGISYGGGRTYYADSVKGRFTISRDNAKNTVYLQMKSLKPEDTAVYYCNTVTSPAPYYSYDSWGQGTQVTVSS,high polyreactivity
3,QVQLVESGGGLVQAGGSLRLSCAASGSTFFLYGRGWYRQARGKERELVATISKRGGSTHYADSVKGRFTISRDNAKNTVYVQKHSLKPEDTAVYYCAAGRPGVSFKEWSYKPSSSYDYWGQGTQVTVSS,low polyreactivity
4,QVQLVESGGGLVQAGGSLRLSCAASGSTFFLYSMGWYRPAPGKERELVAAINYIGGTYYADSVKGRFTISRDNAKNTVYLQMNSLKPEDTAVYYCAASYVGTIAGMDYWGQGTQVTVSS,low polyreactivity
5,QVQLVESGGGLVQAGGSLRLSCAASGSTFFPNAMGWYRQAPGKEREFVAAISWSGGRTYYADSVKGRFTISRDNAKNTVYLQMNSLKPEDTAVYYCAARLYTVRYGYWGQGTQVTVSS,high polyreactivity
6,QVQLVESGGGLVQAGGSLRLSCAASGSTFFPNGMGWYRQAPGKERELVAAITQDGGSTYYADSVKGRFTISRDNAKNTVYLQMNSLKPEDTAVYYCAASAGPYYEYGYWGQGTQVTVSS,low polyreactivity
7,QVQLVESGGGLVQAGGSLRLSCAASGSTFFPYAMGWYRQAPGKERELVATINYSGGGTYYADSVKGRFTISRDNAKNTGYLQMNSLKPEDTAVYYCAKTLARFDRGYYWGQGTQVTVSS,low polyreactivity
8,QVQLVESGGGLVQAGGSLRLSCAASGSTFFRNAMGWYRQAPGKERELVAAISGSGNTYYADSVKGRFTISRDNAKNTVYLQMNSLKPEDTAVYYCADDVVYWYFHYDYWGQGTQVTVSS,low polyreactivity
9,QVQLVESGGGLVQAGGSLRLSCAASGSTFFRYAMGLYRQAPGKEREFVAAITWSGTGTYYADSVKGRFTISRDNAKNTVYLQMNSLKPEDTAVYYCAARRSSNVRRDYWGQGTQVTVSS,high polyreactivity
10,QVQLVESGGGLVQAGGSLRLSCAASGSTFFRYAMGWYRQAPGKEREFVAAITSSGGNTYYADSVKGRFTISRDNAKNTVYLQMNSLKPEDTAVYYCADVWYSPYVKYNYWGQGTQVTVSS,low polyreactivity
11,QVQLVESGGGLVQAGGSLRLSCAASGSTFFRYAMGWYRQAPGKERELVAAISWSGGTTYYADSVKGRFSISRDNAKNTVYLQMNSLKPEDTAVYFCNAVRQGHILDYWGQGTQVTVSS,low polyreactivity
12,QVQLVESGGGLVQAGGSLRLSCAASGSTFFRYAMVWYRQAPGKERELVAAITWTGGDTYYEDSVKVRFTISRDNAMNTVYLKMNSLKPEDTAVYYCNKRLDSYYLPGFDYWGQGTQVTVSS,low polyreactivity
13,QVQLVESGGGLVQAGGSLRLSCAASGSTFFYKAMGWYRPAPGKERELVAVISSRGTSTYYADSVKGRFTISRDNAKNTVYLQMNSLKPEDTAVYYCAAVQIRHTATLLHKPGYYWGQGTQVTVSS,high polyreactivity
14,QVQLVESGGGLVQAGGSLRLSCAASGSTFFYNAMGWSRQAPGKERELVASINDRAGRTYYADSVKGRFSISRDNAKNTVYLQMNSLKPEDTAVYYCAAEPWYKFDDDFWGQGTQVTVSS,low polyreactivity
15,QVQLVESGGGLVQAGGSLRLSCAASGSTFFYNAMGWYRKAPGKERELVAAITGSGTRTYYADSVKGRFTISRDNAKNTVYLQMNSLKPEDTAVYYCAKYPHPLKYRGYPSEFDYWGQGTQVTVSS,low polyreactivity
16,QVQLVESGGGLVQAGGSLRLSCAASGSTFFYNAMGWYRQAPGKERELVAAISWSGGRTYYADSVKGRFTISRDNAKNTVYLQMNSLKPEDTAVYYCNTVVSKYYKVGFGSWGHGTQVTVSS,high polyreactivity
17,QVQLVESGGGLVQAGGSLRLSCAASGSTFFYNAMGWYRQAPGKERELVAGITSGGSTYYADSVKGRFTISRDNAKNTVYLQMNSLKPEDTAVYYCAVDVPPWDYDYWGQGTQVTVSS,low polyreactivity
18,QVQLVESGGGLVQAGGSLRLSCAASGSTFFYYAMGWYRQAPGKERELVAGITSGASTTYADSVKGRFTISRDNAKNNVYLQMNSLKPEDTAVYYCAADHVESSWSDYDYWGQGTQVTVSS,low polyreactivity
19,QVQLVESGGGLVQAGGSLRLSCAASGSTFGANAKGWYRQAPGKARALVAAITWSGGSTYYADSVKGRFTISRDNAKNTVFLQMNSLKPEDTAVSYCNAVARWYVLQVYEYDYWGQGTQVTVSS,low polyreactivity
20,QVQLVESGGGLVQAGGSLRLSCAASGSTFGANAMGWYRQAPGKEREFVAAISRSGVRTYYADSVKGRFTISRDNAKNTVYLQMNSLKPEDTAVYYCAARFWYDYRHYDYWGQGTQVTVSS,low polyreactivity
21,QVQLVESGGGLVQAGGSLRLSCAASGSTFGANAMGWYRQARGKEREFVAAISRSGVRTYYADSVKGRFTISRDNAKNTVYLQMNSLKPEDTAVYYCAADGYWWTYTRYDYCGQGTQVTVSS,low polyreactivity
22,QVQLVESGGGLVQAGGSLRLSCAASGSTFGDNAMGWYRQAPGKERELVATITWSDDSTYYADSVKGRFTISRDNAKNTVYLQMNSLKPEDTAFYYCAADVDSYLLIGAVEYDYWGHGTQVTVSS,low polyreactivity

row,Sequence,polyreactivity (PSR sort gate)
1,QVQLVESGGGLVQAGGSLRLSCAASGSTFGDNTMGWYRQAPGKERELVAAISRRGGSTYYADSVKGRFTISRDNAKNTVYLQMNSLKPEDTAVYYCADEWQQLGGPVYYWGQGTQVTVSS,high polyreactivity
2,QVQLVESGGGLVQAGGSLRLSCAASGSTFGDYAMGWYRQAPGKERELVAAITIGGITTYADSVKGRFTISRDNAKNTVYLQMNSLKPEDTAVYYCNADDYQYKTWYHLDYWGQGTQVTVSS,low polyreactivity
3,QVQLVESGGGLVQAGGSLRLSCAASGSTFGFYAMGWYRQAPGKERELVAAISGRGGSTYYADSVKGRFTISRDNAKNTVYLQMNSLKPEDTAVYYCNADWQDDLAGYDVDYWGQGTQVTVSS,low polyreactivity
4,QVQLVESGGGLVQAGGSLRLSCAASGSTFGFYAMGWYRQAPGKERELVAAITGSGGSTYYADSVKGRFTISRDNAKNTVYLQMNSLKPEDTAVYYCNRYGVRYYRYDYWGQGTQVTVSS,high polyreactivity
5,QVQLVESGGGLVQAGGSLRLSCAASGSTFGFYAMGWYRQAPGTERELVAVISSGDSPYYADSVKGRFTISRDNAKNTVYLKMNSRKPEDTAVYYCAKDALVIDGGGGYDYWGQGTQVTVSS,low polyreactivity
6,QVQLVESGGGLVQAGGSLRLSCAASGSTFGFYAMGWYTHAPGKERELVAGITRVGSTNYADSVKGRFTISRDNAKNTVYLQMNSLKPEVTAVYYCNRRYTPYTWPYGYWGQGTQVTVSS,high polyreactivity
7,QVQLVESGGGLVQAGGSLRLSCAASGSTFGGYALGWDRQAPGKDRELVAAISRSGGRTYYADSVKGRFTISRDNAQNTVYLQMNSLKPEATAVYDCYPYYIASTFDYWGHGTQVTVSS,high polyreactivity
8,QVQLVESGGGLVQAGGSLRLSCAASGSTFGGYAMGRYRQAPGKERELVAAISNGDRTNYADSVKGRFTISRDNAKNTVYLQKNSLKPEETAVYYCATRTLFRYPNYGNNLWGYDYWGQGTQVTVSS,low polyreactivity
9,QVQLVESGGGLVQAGGSLRLSCAASGSTFGGYAMGWSRQAPGKERELVARITRSGGRTYYADSVKGRFTISRDNAKNTVYLQMNSLKPEDTAVYYCNKQLLISRQIQYEYWGQGTQVTVSS,low polyreactivity
10,QVQLVESGGGLVQAGGSLRLSCAASGSTFGGYAMGWYRQAPGKERELVAAINSGGSTYYADSVKGRFTISRDNAKNTVYLQMNSLKPEDTSVYYCNADSQVLRDYISDYWGQGTQVTVSS,low polyreactivity
11,QVQLVESGGGLVQAGGSLRLSCAASGSTFGGYAMGWYRQAPGKERELVAAITWSGDTYYADSVKGRFTISRDYAKNTVYLQMNSLKPEDTAVYYCAASYLGFHMSYDYWGQGTQVNVSS,high polyreactivity
12,QVQLVESGGGLVQAGGSLRLSCAASGSTFGGYVMGWYRQAPGKERELVAAISGNGASTTYADSVKGRFTISRDNAKNTFYLQMNSLIPEDTAVFYCAAMYRKAHSDYDYWGQGSQVTVSS,low polyreactivity
13,QVQLVESGGGLVQAGGSLRLSCAASGSTFGGYVMGWYRQAPGKERELVAAISGNGASTTYADSVKGRFTISRDNAKNTVYLQLNSLKPEDTAVYYCAALYRKAHSDYDYWGQVTQVTVSS,low polyreactivity
14,QVQLVESGGGLVQAGGSLRLSCAASGSTFGHNVMGWYRQAPGKERELVAVISWRGGSTSYADSVKGRFTISRDNAKNTVYLQMNSLKPEDTAVYYCAKPALRYSSRYDSWGQGTQVTVSS,high polyreactivity
15,QVQLVESGGGLVQAGGSLRLSCAASGSTFGINAMGWSRQAPGKERELVAAISWRGGSTYYADSVKGRFTISRDNSKNTVYLQMNSLKPEDTAVYYCAADTFYWVGHYYVETYDYWGQGTQVTVSS,high polyreactivity
16,QVQLVESGGGLVQAGGSLRLSCAASGSTFGINAMGWYRQAPGKERELVAAIDASGGTTYFADSVKGRFTISRDNAKNTVYLQMNSLKPEDTAVYYCAADDNYYTFGYWGQGTQVTVSS,high polyreactivity
17,QVQLVESGGGLVQAGGSLRLSCAASGSTFGINTMGWYRQAPGKERELVASINRGGTTNYADSVKGRFTISRDNAKNTVYLQMNSLKPEDTAVYYCNARYYVTRLSRFRYGYWGQGTQVTVSS,high polyreactivity
18,QVQLVESGGGLVQAGGSLRLSCAASGSTFGIYARGGYRQAPGNERELVAAISWRGGRTYYADSVKGRFTISRDNAKNTVYLQMNSLKPEDTAVYYCAADLAVYYIFLALEFNYWGQGTQVTVSS,low polyreactivity
19,QVQLVESGGGLVQAGGSLRLSCAASGSTFGKYAMGWYRQAPGKERELVAAITWSGASTFYADSVKGRFTISRDNAKNTVYLQMNSLKPEDTAVYYCAARSYKSYYIFDYWGQGTQVTVSS,low polyreactivity
20,QVQLVESGGGLVQAGGSLRLSCAASGSTFGLNAMGWYRQAPGKERELVAAITRSDITNYADSVKGRFTISRDNAKNTVYLQMNSLKPEDTAVYYCNKTPDRHRRYFGYGYWGHGTQVTVSS,low polyreactivity
21,QVQLVESGGGLVQAGGSLRLSCAASGSTFGLNAMGWYRQAPGKERELVAAITSGGTYYADSVKGRFTISRDNAKNTVYLQMNSLKPEDTAVYYCAADGTWSIYGGLYYWGQGTQVTVSS,low polyreactivity
